Measured values as given in PMC7425898, “Human Golgi phosphoprotein 3 is an effector of RAB1A and RAB1B” (PLoS ONE, 2020).
Each block holds one binder with its values, some of them ahead of it.

Columns and labels:
[1] = target: T1, GST-RAB1A-Q70L (human, UniProt P62820 1-205, Q70L); experiment: pull-down; GST or GST-tagged RAB1A/B variants on glutathione-Sepharose 4B, soluble protein extract of H4 cells (0.5 mg) with protease and phosphatase inhibitors; binding buffer-1; 3 h, 4°C; immunoblot for GOLPH3, densitometry; conditions: one partner purified
T1 construct: RAB1A, human, full length, in pGST-Parallel-1, GTP-locked variant; also called GST-tagged, GTP-locked active state variant of RAB1A; source: E. coli B834(DE3), purified on glutathione-Sepharose 4B

[2] = target: T2, GST-RAB1B-Q67L (human, UniProt Q9H0U4 1-201, Q67L); experiment: as above; conditions: one partner purified
T2 construct: RAB1B, human, full length, in pGST-Parallel-1, GTP-locked variant; also called GST-tagged, GTP-locked active state variant of RAB1B; source: E. coli B834(DE3), purified on glutathione-Sepharose 4B

[3] = target: T3, GFP-RAB1A-Q70L (human, UniProt P62820 1-205, Q70L); experiment: co-IP; GFP-Trap agarose beads with extracts (0.2 mg) of H4 cells expressing GFP or GFP-RAB1A/B variants, supplemented with extract (0.3 mg) of non-transfected cells; 25 mM Tris-HCl, 50 mM NaCl, 0.1% NP-40, pH 7.5; 1.5-4 h, 4°C; immunoblot for GOLPH3, densitometry; conditions: partners not purified
T3 construct: RAB1A, human, pEGFP construct, GTP-locked variant; also called GFP-tagged GTP-locked active state variant of RAB1A; source: H4 cells, transfected (pEGFP construct), in soluble protein extract

[4] = target: T4, GFP-RAB1B-Q67L (human, UniProt Q9H0U4 1-201, Q67L); experiment: as above; conditions: partners not purified
T4 construct: RAB1B, human, pEGFP construct, GTP-locked variant; also called GFP-tagged GTP-locked active state variant of RAB1B; source: H4 cells, transfected (pEGFP construct), in soluble protein extract

[5] = target: T5, Recombinant, untagged GOLPH3 (human, UniProt Q9H4A6 1-298); experiment: ITC; GOLPH3 (100 μM) in the chamber, RAB1A or RAB1B (1 mM) injected; 25°C; 50 mM Tris-HCl, 150 mM NaCl, 1 mM DTT, pH 7.4; one-site model; no nucleotide exchange; conditions: both partners purified
T5 construct: Golgi phosphoprotein 3 (GOLPH3), human, full-length cDNA NM_022130, cloned into pGST-Parallel-1; removal of GST by TEV is surmised from the vector and from the method told for RAB1; also called purified recombinant GOLPH3; not shown: GST, N-terminal, cleaved

[6] = target: T5, Recombinant, untagged GOLPH3; experiment: pull-down; GST-RAB1A/B (50 μM) or GST on glutathione-Sepharose 4B, increasing concentrations of recombinant GOLPH3; 20 mM HEPES, 100 mM NaCl, 5 mM MgCl2, 1 mM DTT, 1% CHAPS, pH 7.2; 3 h, 4°C; Coomassie, densitometry, non-linear fit assuming 1:1; apparent KD; conditions: both partners purified

T4 sequence (Q9H0U4 whole entry Q67L): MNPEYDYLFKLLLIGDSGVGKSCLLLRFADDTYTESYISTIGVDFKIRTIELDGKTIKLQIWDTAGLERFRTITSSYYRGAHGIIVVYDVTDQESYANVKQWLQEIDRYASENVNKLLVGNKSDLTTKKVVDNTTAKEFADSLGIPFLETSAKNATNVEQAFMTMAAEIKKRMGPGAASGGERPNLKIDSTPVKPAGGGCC
T2 sequence (Q9H0U4 whole entry Q67L): as above
T3 sequence (P62820 whole entry Q70L): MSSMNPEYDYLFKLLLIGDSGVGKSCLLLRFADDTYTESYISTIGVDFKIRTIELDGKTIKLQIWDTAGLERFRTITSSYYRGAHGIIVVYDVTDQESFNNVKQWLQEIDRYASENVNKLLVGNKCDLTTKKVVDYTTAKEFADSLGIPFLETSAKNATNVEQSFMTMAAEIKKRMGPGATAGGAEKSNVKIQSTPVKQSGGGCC
T1 sequence (P62820 whole entry Q70L): as above

B1: Endogenous GOLPH3 (natural protein, human (endogenous in H4), UniProt Q9H4A6 1-298, looked up)
chain: MTSLTQRSSGLVQRRTEASRNAADKERAAGGGAGSSEDDAQSRRDEQDDDDKGDSKETRLTLMEEVLLLGLKDREGYTSFWNDCISSGLRGCMLIELALRGRLQLEACGMRRKSLLTRKVICKSDAPTGDVLLDEALKHVKETQPPETVQNWIELLSGETWNPLKLHYQLRNVRERLAKNLVEKGVLTTEKQNFLLFDMTTHPLTNNNIKQRLIKKVQEAVLDKWVNDPHRMDRRLLALIYLAHASDVLENAFAPLLDEQYDLATKRVRQLLDLDPEVECLKANTNEVLWAVVAAFTK
notes: Golgi phosphoprotein 3 (GOLPH3), endogenous in human H4 neuroglioma cells; source: endogenous, H4 human neuroglioma cells, soluble protein extract
fold of GOLPH3 pulled down against the wild type variant [1]: ~1.2 times | fold of GOLPH3 pulled down against the wild type variant [2]: ~1.1 times | fold of GOLPH3 pulled down against the wild type variant [3]: ~1.2 times | fold of GOLPH3 pulled down against the wild type variant [4]: ~1.1 times

B5: Purified, recombinant RAB1A (natural protein)
chain: not shown
notes: RAB1A, human, full length, from pGST-Parallel-1, GST removed by TEV protease; source: E. coli B834(DE3), purified (glutathione-Sepharose 4B, TEV cleavage, Ni-NTA, Superdex 200)
Kd [5]: 61.9 µM | stoichiometry N [5]: 1

Now from value to binder:

Kd [5]: 78.4 µM | stoichiometry N [5]: 1
B2: Purified, recombinant RAB1B (natural protein)
chain: not shown
notes: RAB1B, human, full length, from pGST-Parallel-1, GST removed by TEV protease; source: E. coli B834(DE3), purified (glutathione-Sepharose 4B, TEV cleavage, Ni-NTA, Superdex 200)

Kd [6]: 54.7 ± 4.2 µM
B3: GST-RAB1A (wild type) (natural protein)
chain: not shown
notes: RAB1A, human, full length, cloned into pGST-Parallel-1; also called GST-tagged RAB1A; GST-RAB1A/B; source: E. coli B834(DE3), purified on glutathione-Sepharose 4B

Kd [6]: 64.2 ± 3.7 µM
B4: GST-RAB1B (wild type) (natural protein)
chain: not shown
notes: RAB1B, human, full length, cloned into pGST-Parallel-1; also called GST-tagged RAB1B; GST-RAB1A/B; source: E. coli B834(DE3), purified on glutathione-Sepharose 4B
